No end group written: not given here.
Assays:
rhAngiostatin [1] = biological target: T1, rhAngiostatin (Homo sapiens, UniProt P00747); experiment: Panning of CX7C phage library on rhAngiostatin (clone frequency); assay type: binding; conditions: clones sequenced after panning on rhAngiostatin
T1 construct: rh-Angiostatin and rh-Endostatin were produced by EntreMed, Inc; purchased EntreMed, Inc. (Rockville, Md.)
Description: (§1) A phage library displaying random cyclic peptides with the structure CX7C (C, cysteine; X, any residue) was prepared. An aliquot of the library containing 3×10^10 transducing units (TU) was screened with rhAngiostatin protein coated on microtiter wells as described (Koivunen et al 1993). In the first and second panning the amount of protein used was 10 μg/well. To increase the stringency of panning, the wells were coated with a decreased concentration of rhAngiostatin protein (100 ng/well) in the third panning. Phage remained bound after extensive washing. Bound phage were recovered by infection into F-pilus positive K91 bacteria. To determine the specificity of rhAngiostatin binding, selected phage were assayed as described but using rh-Endostatin and BSA proteins to coat the wells. In all assays, insertless phage (fdtet) was used as a control.
(§2) Phage were sequenced from randomly selected clones after three rounds of panning (Koivunen et al., 1994, 1995; Pasqualini et al., 1995). A number of distinct angiostatin-targeting sequences were identified (Table 10). Randomly selected clones from rounds II and III were sequenced. Amino acid sequences of the phagemid encoded peptides were deduced from nucleotide sequences. A consensus sequence appeared on the third round in 61% of the sequences examined (26 out of 42)—CWSLEXXKC (SEQ D NO: 141). Including the closely related sequence CWSAEWTKC (SEQ ID NO: 142) the consensus motif accounted for 71% of Angiostatin binding peptides. The ratios in the last two columns of Table 10 were calculated by dividing the number of colonies recovered from rhAngiostatin-coated wells by those recovered from rh-Endostatin or BSA wells.

CD13 (Aminopeptidase N) = experiment: competition against rhAngiostatin binding to coated CD13, 0.5 µg peptide; not shown
CD13 (Aminopeptidase N), sequence (P15145 2-963): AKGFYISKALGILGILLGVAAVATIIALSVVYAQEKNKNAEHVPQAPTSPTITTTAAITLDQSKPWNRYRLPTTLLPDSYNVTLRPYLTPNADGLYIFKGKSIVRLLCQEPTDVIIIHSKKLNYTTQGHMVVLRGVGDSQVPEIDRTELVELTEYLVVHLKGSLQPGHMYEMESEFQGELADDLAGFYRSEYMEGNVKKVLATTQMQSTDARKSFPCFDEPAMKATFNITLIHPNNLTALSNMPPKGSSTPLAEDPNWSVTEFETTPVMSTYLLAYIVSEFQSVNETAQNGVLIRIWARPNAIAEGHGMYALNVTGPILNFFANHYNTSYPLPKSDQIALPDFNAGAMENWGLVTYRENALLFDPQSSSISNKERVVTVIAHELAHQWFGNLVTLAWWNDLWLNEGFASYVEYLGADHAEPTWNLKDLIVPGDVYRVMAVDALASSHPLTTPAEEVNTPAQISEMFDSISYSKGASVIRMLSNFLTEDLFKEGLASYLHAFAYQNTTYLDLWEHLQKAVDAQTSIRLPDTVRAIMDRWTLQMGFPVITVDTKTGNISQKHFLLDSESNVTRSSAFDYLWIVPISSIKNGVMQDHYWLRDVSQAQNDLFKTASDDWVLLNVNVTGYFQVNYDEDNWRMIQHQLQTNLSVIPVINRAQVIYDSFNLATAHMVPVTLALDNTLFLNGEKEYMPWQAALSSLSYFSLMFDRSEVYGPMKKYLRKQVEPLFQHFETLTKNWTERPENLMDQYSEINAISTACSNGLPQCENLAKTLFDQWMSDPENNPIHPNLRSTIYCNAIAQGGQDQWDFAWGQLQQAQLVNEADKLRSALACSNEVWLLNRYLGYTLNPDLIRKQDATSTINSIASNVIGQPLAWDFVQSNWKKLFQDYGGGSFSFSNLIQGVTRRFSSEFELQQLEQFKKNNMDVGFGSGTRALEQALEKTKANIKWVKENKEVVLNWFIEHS

[2] = tested on: antibodies present in the serum; experiment: ELISA of sera on immobilized GST-fusion peptides; assay type: binding, human; conditions: for reactivity of serum against peptide in presence of the corresponding synthetic peptide: data not shown; for ELISA reactivity of patient serum with GST-fusion peptide: serum of the patients selected for the screenings, GST alone as negative control
Description: A 20 μg/ml solution of purified GST or GST-fusion proteins in 0.1M NaHCO3 was used to coat maxisorp multi-well plates (Nalge Nunc International Corporation) and incubated overnight at 4° C. The plates were blocked in a blocking buffer (4% milk, 2% casein, and 0.05% Tween-20) for 3-4 hours. A series of […] (1:100-1:1200) of sera from prostate cancer patients or healthy individuals was added and incubated for 1.5 hours and then washed five times with washing buffer (1% milk, 0.5% casein, and 0.025% Tween-20), followed by incubation at 4° C. with anti-human allaline phosphatase-conjugated antibodies (Gibco). The plates were then washed six times in washing buffer and developed using p-NPP (Sigma) as a substrate. An automatic ELISA plate reader (BIO-TEK instrument) recorded the results at OD405 nm.
Probabilities of survival for each group were estimated using the Kaplan-Meier method. A log-rank test was implemented in order to detect significant differences between the groups. Reactivity was considered to be detected if the ratio between GST-peptide and GST alone was greater or equal to two by the ELISA data. The Cox proportional hazards model was applied to analyze the effect of single and multiple risk factors in association with survival. Martingale residual plots were used to assess the proportional hazard assumption. P-values less than 0.05 were considered significant. All analyses were performed using SPLUS statistical software.
ELISA was performed to assess if the peptides could be specifically recognized by the antibodies present in the serum of the patients selected for the screenings. Peptides A (CHQKPWEC, SEQ ID NO: 58), B (CKDRFERC, SEQ ID NO: 59), and C (CNVSDKSC, SEQ ID NO: 60) were produced as GST-fusion proteins and immobilized onto microtiter wells, along with GST alone as a negative control. For each sample tested, a series of 100-fold dilutions was performed. […] The reactivity of each serum against peptides A, B and C was inhibited by the corresponding synthetic peptides (data not shown).
The reactivity profile of 91 sera obtained from clinically annotated prostate cancer patients was examined. Sera from 34 healthy individuals were also tested as a control for specificity. ELISA was performed to evaluate each serum using the three selected peptides (A, B, and C). The sera obtained from patients with prostate cancer were divided into three groups: 35 originated from patients with localized adenocarcinomas, 27 from patients with metastatic androgen-dependent disease, and 29 originated from patients with metastatic androgen-independent disease.

[3] = tested on: IgG from the ovarian cancer patient; experiment: Binding of phage to IgGs isolated from ovarian cancer patient ascites or serum; set-up: species or system human
Source text: FIG. 22. Binding of phage containing the CVPELGHEC (SEQ ID NO: 271) and CFELGFELGC (SEQ ID NO: 272) targeting peptides to IgG's isolated from ovarian cancer patient #2 ascites, normal serum and BSA.
FIG. 23. Binding of phage containing the CVPELGHEC (SEQ ID NO: 271) targeting peptide to IgG's isolated from normal serum or from ascites of ovarian cancer patient #1 or #2. Control fd-tet phage contained no insert DNA.
FIG. 24. Binding of phage containing the CVPELGHEC (SEQ ID NO: 271) targeting peptide to IgG's isolated from serum of ovarian cancer patient #2, normal serum or BSA.
To select peptides specific to the ascitic fluid of ovarian cancer patients, IgGs from normal donor serum and ovarian cancer cell free ascitic fluid were bound to Protein agarose (Pierce) in the Pierce acetate, pH5 binding buffer. A two step biopanning procedure was employed in which the first step involved pre-clearing the phage peptide library by incubating it with IgGs isolated from normal donor serum in order to remove common antigens. This was followed by a second step where the pre-cleared library was used to screen cancer specific IgGs. Approximately 10^8 transforming units were added to the IgGs for the panning procedure. The resultant IgG-bound phage were recovered by eluting the phage with 0.1M glycine buffer, pH2.2, neutralizing the phage with 0.1 volume 1 M Tris-Cl, pH 9, and using the phage to infect stationary phase Escherichia coli strain K91. Serial dilutions of phage infected-K91 were plated onto tetracycline (40 μg/ml) LB agar plates and grown overnight at 37° C. Individual clones were picked, amplified, and precipitated for subsequent rounds of panning. A total of three rounds of selection were performed. Phage clones from the second and third rounds were subject to PCR followed by sequence analysis to evaluate enrichment of the most consistently binding peptide sequences.

[4] = tested on: cells infected by targeted phage vectors; experiment: Enhancement of phage transduction by genotoxic agents or genetic trans-complementation; assay type: cell-based; conditions: genotoxic drug 10 μM added 36 hours after infection, analysis at 72 hours post-infection
Description: Semi-confluent cells were infected with 10^5 TU of phage per cell for 4 hours in serum free media, after which fresh medium supplemented with FCS was added (no phage were washed out or removed). In some experiments, a phage admixture of forward and reverse clones at 10^10 TU (forward/reverse molar ratio=1) was tested. Next, cells were incubated for 36 hours followed by the addition of genotoxic drugs (topotecan, 10 μM; cisplatin, 10 μM) or administration of UV radiation (15 J/m^2) with a cross-linker apparatus (UV Stratalinker Model 2400; Stratagene). At 72 hours post-infection, the cells were analyzed for transduction of a reporter gene (β-gal or GFP), and gene expression was normalized per cell number relative to controls.

rhAngiostatin [5] = biological target: T2, rhAngiostatin (human, UniProt P00747 98-357, limits assumed); experiment: phage binding to coated wells; colonies from rhAngiostatin wells divided by those from BSA wells
T2 sequence (P00747 98-357 limits assumed): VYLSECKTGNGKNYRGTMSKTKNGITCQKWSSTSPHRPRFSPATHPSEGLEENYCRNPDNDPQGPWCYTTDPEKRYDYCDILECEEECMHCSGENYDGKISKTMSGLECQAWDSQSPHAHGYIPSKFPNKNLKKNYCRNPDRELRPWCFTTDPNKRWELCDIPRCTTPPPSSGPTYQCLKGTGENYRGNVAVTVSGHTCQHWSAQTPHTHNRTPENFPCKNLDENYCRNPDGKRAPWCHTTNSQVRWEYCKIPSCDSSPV
Description: as §1, with “CX₇C” for “CX7C”, “3×10¹⁰” for “3×10^10”
as §2, with “CWSAEWTKC” left out

rhAngiostatin [6] = biological target: T2, rhAngiostatin; experiment: phage binding to coated wells; colonies from rhAngiostatin wells divided by those from rh-Endostatin wells
Description: as §1, with “CX₇C” for “CX7C”, “3×10¹⁰” for “3×10^10”
as §2, with “CWSAEWTKC” left out

T1 sequence (P00747 79-466 limits assumed): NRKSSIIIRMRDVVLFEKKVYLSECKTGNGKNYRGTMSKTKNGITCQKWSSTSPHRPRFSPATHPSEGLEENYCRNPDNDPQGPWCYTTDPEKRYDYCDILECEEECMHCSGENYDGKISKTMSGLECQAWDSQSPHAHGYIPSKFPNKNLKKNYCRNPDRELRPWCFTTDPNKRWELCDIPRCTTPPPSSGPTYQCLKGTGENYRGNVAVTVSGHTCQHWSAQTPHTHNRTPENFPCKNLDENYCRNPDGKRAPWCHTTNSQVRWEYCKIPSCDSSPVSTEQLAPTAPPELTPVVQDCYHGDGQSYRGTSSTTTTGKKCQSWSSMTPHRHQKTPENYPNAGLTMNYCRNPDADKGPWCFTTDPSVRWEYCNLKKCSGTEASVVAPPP

Molecule: CGGREFWLC
- frequency (rhAngiostatin [1]): 1/42

Molecule: CRWSSMIWC
- frequency (rhAngiostatin [1]): 1/42

Molecule: CWSLELSKC
- frequency (rhAngiostatin [1]): 10/42

Molecule: NGR peptide (Burg et al., 1999)
- percent inhibition of angiostatin binding to CD13 (CD13 (Aminopeptidase N)): > 50%

Molecule: CSLQGIVGC
- frequency (rhAngiostatin [1]): 1/42

Molecule: CRVLADRDC
- frequency (rhAngiostatin [1]): 1/42

Molecule: CLAWVGGRC
- frequency (rhAngiostatin [1]): 1/42

Molecule: CNVSDKSC [peptide C]
- reactivity of serum against peptide in presence of the corresponding synthetic peptide [2]: inhibited
- ELISA reactivity of patient serum with GST-fusion peptide [2]: strong reactivity

Molecule: CKDRFERC [peptide B]
- reactivity of serum against peptide in presence of the corresponding synthetic peptide [2]: inhibited
- ELISA reactivity of patient serum with GST-fusion peptide [2]: strong reactivity

Molecule: CSRSVSRLC
- frequency (rhAngiostatin [1]): 1/42

Molecule: CQGKFSQRC
- frequency (rhAngiostatin [1]): 1/42

Molecule: CWSLEVAKC
- frequency (rhAngiostatin [1]): 5/42

Molecule: CHQKPWEC [peptide A]
- reactivity of serum against peptide in presence of the corresponding synthetic peptide [2]: inhibited
- ELISA reactivity of patient serum with GST-fusion peptide [2]: strong reactivity

Molecule: CWSLESLKC
- frequency (rhAngiostatin [1]): 4/42

Molecule: CGVVSRVGC
- frequency (rhAngiostatin [1]): 1/42

Molecule: CWSAEWTKC
- frequency (rhAngiostatin [1]): 4/42

Molecule: CVAADRYVC
- frequency (rhAngiostatin [1]): 1/42

Molecule: CWSLEFTKC
- frequency (rhAngiostatin [1]): 5/42

Molecule: CVPELGHEC
- phage binding to IgG from ovarian cancer patient #2 ascites versus IgG from a normal patient or BSA ([3]; FIG. 22): very high selectivity
- phage binding to IgGs from patient #2 compared to patient #1 or normal individuals ([3]; FIG. 23): much higher affinity
- phage binding to serum from patient #2 compared to BSA or normal serum ([3]; FIG. 24): similarly high selectivity

Molecule: CWSLELLKC
- frequency (rhAngiostatin [1]): 2/42

Molecule: CYGAWRVSC
- frequency (rhAngiostatin [1]): 1/42

Molecule: N.N.[Cl][Pt][Cl] [cisplatin]
- gene transduction by targeted phage vectors relative to controls [4]: several fold higher

Molecule: CC[C@@]1(O)C(=O)OCc2c1cc1n(c2=O)Cc2cc3c(CN(C)C)c(O)ccc3nc2-1 [topotecan]
- gene transduction by targeted phage vectors relative to controls [4]: several fold higher

B1: phage displaying CWSLELLKC (peptide)
peptide: CWSLELLKC
modifications: not fully specified (bridges); cysteine pairing not given here; also: displayed on phage
- rh-Angio/BSA (ratio of colonies recovered) (rhAngiostatin [5]): 734 ratio
- rh-Angio/rhEndo (ratio of colonies recovered) (rhAngiostatin [6]): 489 ratio

B2: phage displaying CWSLELSKC (peptide)
peptide: CWSLELSKC
modifications: not fully specified (bridges); cysteine pairing not given here; also: displayed on phage
- rh-Angio/BSA (ratio of colonies recovered) (rhAngiostatin [5]): 630 ratio
- rh-Angio/rhEndo (ratio of colonies recovered) (rhAngiostatin [6]): 630 ratio

B3: phage displaying CWSLEFTKC (peptide)
peptide: CWSLEFTKC
modifications: not fully specified (bridges); cysteine pairing not given here; also: displayed on phage
- rh-Angio/BSA (ratio of colonies recovered) (rhAngiostatin [5]): 958 ratio
- rh-Angio/rhEndo (ratio of colonies recovered) (rhAngiostatin [6]): 958 ratio

B4: phage displaying CWSLEVAKC (peptide)
peptide: CWSLEVAKC
modifications: not fully specified (bridges); cysteine pairing not given here; also: displayed on phage
- rh-Angio/BSA (ratio of colonies recovered) (rhAngiostatin [5]): 1120 ratio
- rh-Angio/rhEndo (ratio of colonies recovered) (rhAngiostatin [6]): 486 ratio

B5: phage displaying CWSAEWTKC (peptide)
peptide: CWSAEWTKC
modifications: not fully specified (bridges); cysteine pairing not given here; also: displayed on phage
- rh-Angio/BSA (ratio of colonies recovered) (rhAngiostatin [5]): 892 ratio
- rh-Angio/rhEndo (ratio of colonies recovered) (rhAngiostatin [6]): 124 ratio

B6: phage displaying CRWSSMIWC (peptide)
peptide: CRWSSMIWC
modifications: not fully specified (bridges); cysteine pairing not given here; also: displayed on phage
- rh-Angio/BSA (ratio of colonies recovered) (rhAngiostatin [5]): 11 ratio
- rh-Angio/rhEndo (ratio of colonies recovered) (rhAngiostatin [6]): 7 ratio

B7: phage displaying CYGAWRVSC (peptide)
peptide: CYGAWRVSC
modifications: not fully specified (bridges); cysteine pairing not given here; also: displayed on phage
- rh-Angio/BSA (ratio of colonies recovered) (rhAngiostatin [5]): 14 ratio
- rh-Angio/rhEndo (ratio of colonies recovered) (rhAngiostatin [6]): 6 ratio

From patent publication US20040048243A1, “Methods and compositions for in vitro targeting” (priority 2003, published 2004)
